Results from paper PMC3265607 (Journal of Molecular Biology, 2011).

T1: ceNXT1 (residues 2-137), His6, pETDuet-1 construct for structural studies (Caenorhabditis elegans, UniProt Q9U757 2-137, SeMet-labeled (selenomethionine))
T1 sequence (looked up): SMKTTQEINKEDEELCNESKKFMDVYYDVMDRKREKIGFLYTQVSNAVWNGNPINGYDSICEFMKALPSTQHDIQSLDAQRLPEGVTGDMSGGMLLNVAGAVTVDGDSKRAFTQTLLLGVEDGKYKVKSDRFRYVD


Legend:
[1] = molecular target: ceNXT1, His6, pET28b construct for pull-down assays (Caenorhabditis elegans) (UniProt Q9U757); assay: SEC
[2] = molecular target: T1, ceNXT1 (residues 2-137), His6, …; assay: SEC

Molecule | stoichiometry N [1] | stoichiometry N [2]
ceNXF1(NTF2) (from UniProt Q9XVS7 352-539) (domain or fragment) | 1 | –
ceNXF2(NTF2) (domain or fragment, Caenorhabditis elegans, UniProt Q9XVS8 202-405, looked up) FRNGYYGSDEVRTLVEEFIITYYKIYDGADGQQTRKQLLDAYDTNNSTFTHTVVCLWDPIKFVMYPDSESYRMYLRTSHNVLNQEYFAANRASRISHGAMDIVVALSRLPATIHLMDTFVVDVFLVSATLLGFTLHGTFRDGPSAIKPENTEEHDNYFTRTFMVAPRGEGKVAIVSDQLFISSMSKRRGDQYRMLVETATDIDQ | – | 1
